Test results published in patent US20260139066A1 (VRIJE UNIVERSITEIT BRUSSEL, published 2026).

T1: canine urokinase plasminogen activator receptor, recombinant protein (canine)
T1 construct: Recombinant c uPAR produced by VIB (Ghent); also called c uPAR; canine uPAR
T1 chain: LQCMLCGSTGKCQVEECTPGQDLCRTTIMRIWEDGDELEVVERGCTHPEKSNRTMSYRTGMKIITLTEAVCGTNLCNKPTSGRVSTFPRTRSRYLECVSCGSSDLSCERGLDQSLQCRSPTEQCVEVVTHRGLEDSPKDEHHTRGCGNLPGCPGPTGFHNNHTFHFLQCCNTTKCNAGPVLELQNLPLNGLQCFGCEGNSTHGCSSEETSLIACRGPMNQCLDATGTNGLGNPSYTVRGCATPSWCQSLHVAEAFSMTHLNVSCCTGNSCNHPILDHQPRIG


Tests used:
[1] = target: T2, human urokinase plasminogen activator receptor, recombinant extracellular domain protein (human, UniProt Q03405 23-303); test: SPR (Biacore T200) off-rate screening of bacterial extract, h uPAR immobilised on CM5; column koff
T2 construct: Bought recombinant protein (Sino Biological); also called h uPAR; human uPAR
T2 sequence (Q03405 23-303 limits assumed): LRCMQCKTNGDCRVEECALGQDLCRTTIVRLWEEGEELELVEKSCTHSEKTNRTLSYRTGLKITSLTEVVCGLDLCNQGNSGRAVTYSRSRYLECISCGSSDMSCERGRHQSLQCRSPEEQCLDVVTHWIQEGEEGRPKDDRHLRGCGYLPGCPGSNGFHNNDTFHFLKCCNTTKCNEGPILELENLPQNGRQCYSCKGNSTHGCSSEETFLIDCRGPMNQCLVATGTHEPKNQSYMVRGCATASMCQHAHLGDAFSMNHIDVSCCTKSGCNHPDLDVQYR
Experimental: (§1) SPR was performed using a Biacore device (Biacore T200; Cytiva). First, the CM5 sensor chip (Biacore, Series S Sensor Chip CM5; Cytiva) was activated with 1-ethyl-3-(3-dimethylaminopropyl) carbodiimide/N-hydroxysuccinimide (EDC/NHS; Amine Coupling Kit; Cytiva). Subsequently, h, m or c uPAR recombinant proteins (5 μg/mL) were immobilized on separate chips at pH 5. The SPR measurements were done at 25° C. in HEPES buffered saline (HBS; Cytiva) as a running buffer, with a flow rate of 30 μL/min. For off-rate screening, the contact time was set at 120 s, dissociation time at 600 s, and the runs were replicated 5 times. […] The association step was allowed for 180 s, the dissociation step for 600 s. For both studies, regeneration of 20 s at 30 μL/min using 0.1 M glycine at pH 2.5 followed by a stabilization period of 60 s, was performed.

[2] = target: T2, human urokinase plasminogen activator …; test: SPR (Biacore T200) kinetics, purified sdAb 150-0.62 nM, h uPAR immobilised on CM5, kd/ka
Experimental: (§2) The thermal stability of the sdAbs was determined via a thermal shift assay. Melting temperatures (Tₘ) ranged between 59.5 and 73.6° C. (Table 1). The kinetic parameters (kₐ, Kd, KD) of the purified sdAbs were evaluated via SPR on respectively h and c uPAR recombinant protein (FIG. 10, Table 1). Contrarily to the BE-ELISA results, no h/m or h/m/c cross-reactive sdAbs were identified. […] Finally, their binding to cell-membrane-expressed uPAR was investigated via flow cytometry using 1) h or c uPAR lentivirally transduced HEK293T cells and 2) U87 or HT29 cells with natural h expression. SdAbs showing a significant shift in binding compared to the control conditions (i.e., binding of the non-targeting sdAb R3B23) were further taken into consideration (FIG. 2). Based on the combined results in terms of production yield, stability, binding characteristics, and cross-reactivity, 2 anti-h uPAR (sdAb 3 and 4) and 4 cross-reactive h/c uPAR (sdAb 15, 16, 17 and 18, having respectively SEQ ID NOs: 2, 20, 21, 22) sdAbs were selected for further in vivo evaluation.
as §1

[3] = target: T2, human urokinase plasminogen activator …; test: SPR (Biacore T200) kinetics, purified sdAb 150-0.62 nM, h uPAR immobilised on CM5, 1:1 fit
Experimental: as §2, §1

[4] = target: T1, canine urokinase plasminogen activator …; test: SPR (Biacore T200) kinetics, purified sdAb 150-0.62 nM, c uPAR immobilised on CM5, kd/ka
Experimental: as §2, §1

[5] = target: T1, canine urokinase plasminogen activator …; test: SPR (Biacore T200) kinetics, purified sdAb 150-0.62 nM, c uPAR immobilised on CM5, 1:1 fit
Experimental: as §2, §1

[6] = target: T2, human urokinase plasminogen activator …; test: SPR (Biacore T200) kinetics, purified sdAb 150-0.62 nM, h uPAR immobilised on CM5, 1:1 fit; column kd
Experimental: as §2, §1

[7] = target: T1, canine urokinase plasminogen activator …; test: SPR (Biacore T200) off-rate screening of bacterial extract, c uPAR immobilised on CM5; column koff
Experimental: as §1

[8] = target: T1, canine urokinase plasminogen activator …; test: SPR (Biacore T200) kinetics, purified sdAb 150-0.62 nM, c uPAR immobilised on CM5, 1:1 fit; column kd
Experimental: as §2, §1

| koff [1] | Kd [2] | kon [3] | Kd [4] | kon [5] | koff [6] | koff [7] | koff [8] | Binder |
| --- | --- | --- | --- | --- | --- | --- | --- | --- |
| 0.0042 s⁻¹ | 2.1 nM | 1.6e+06 M⁻¹ s⁻¹ | 12 nM | 170000 M⁻¹ s⁻¹ | 0.0034 s⁻¹ | 0.0065 s⁻¹ | 0.002 s⁻¹ | sdAb 15 (clone 5A4) with carboxy-terminal hexahistidine tag (VHH, Lead compound; C-terminal 6His for purified-protein SPR; koff screen used bacterial extracts of the pMECS-GG construct; also called sdAb15.6His; Nr 15) VHH: QVQLQESGGGWVQPGGSLRLSCAASGFTLDYYGIGWFRQAPGKEREGVSCISSSDGSTYYADSVKGRFTISRDNAKNTVYLQMNSLKPEDTAVYYCATRGASCYYTGSYSLGYDYWGQGTQVTVSS |
| 0.0026 s⁻¹ | 2.3 nM | 860000 M⁻¹ s⁻¹ | 17 nM | 120000 M⁻¹ s⁻¹ | 0.0019 s⁻¹ | 0.0073 s⁻¹ | 0.0019 s⁻¹ | sdAb 17 (clone 5B7) with carboxy-terminal hexahistidine tag (VHH, C-terminal 6His for purified-protein SPR; koff screen used bacterial extracts; also called Nr 17) VHH: QVQLQESGGGLVQPGGSLRLSCAVSGSTLEYYGIGWFRQAPGKEREGVSCISSSDGSTYYADSVKGRFTISRDNAKNTVYLQMNSLKPEDTAVYYCATRGASCYYTGSYSLGYDYWGQGTQVTVSS |
| 0.0031 s⁻¹ | 4.7 nM | 840000 M⁻¹ s⁻¹ | 34 nM | 100000 M⁻¹ s⁻¹ | 0.004 s⁻¹ | 0.0092 s⁻¹ | 0.0035 s⁻¹ | sdAb 18 (clone 5H2) with carboxy-terminal hexahistidine tag (VHH, C-terminal 6His for purified-protein SPR; koff screen used bacterial extracts; also called Nr 18) VHH: QVQLQESGGGLAQPGGSLRLSCTASGFTSDYYGIGWFRQAPGKEREGVSCISSSDGSTYYADSVKGRFTISRDNAKNTVYLQMNSLKPEDTAVYYCATRGASCYYTGSYSLGYDYWGQGTQVTVSS |
| 0.0027 s⁻¹ | 3 nM | 500000 M⁻¹ s⁻¹ | 36 nM | 86000 M⁻¹ s⁻¹ | 0.0015 s⁻¹ | 0.01 s⁻¹ | 0.0031 s⁻¹ | sdAb 16 (clone 5A5) with carboxy-terminal hexahistidine tag (VHH, C-terminal 6His for purified-protein SPR; koff screen used bacterial extracts; also called Nr 16) VHH: QVQLQESGGGLVQPGGSLRLSCAISGFTLDYYGIGWFRQAPGKEREGVSCISSSDGSTYYADSVKGRFTISRDNAKNTVYLQMNSLKPEDTAVYYCATRGASCYYSGSYSLGYDYWGQGTQVTVSS |
